Results from US20250012721A1, “FLUORESCENCE DETECTION KIT FOR ACTIVATED COMPLEMENT C1s, DETECTION METHOD USING SAME, AND USE THEREOF” (JIANGSU UNIVERSITY, priority 2022, published 2025).

B1: Double-stranded C1r: interfering antigenic substance (complement analogue) that might exist in serum (protein)
chain: SIPIPQKLFGEVTSPLFPKPYPNNFETTTVITVPTGYRVKLVFQQFDLEPSEGCFYDYVKISADKKSLGRFCGQLGSPLGNPPGKKEFMSQGNKMLLTFHTDFSNEENGTIMFYKGFLAYYQAVDLDECASRSKSGEEDPQPQCQHLCHNYVGGYFCSCRPGYELQEDTHSCQAECSSELYTEASGYISSLEYPRSYPPDLRCNYSIRVERGLTLHLKFLEPFDIDDHQQVHCPYDQLQIYANGKNIGEFCGKQRPPDLDTSSNAVDLLFFTDESGDSRGWKLRYTTEIIKCPQPKTLDEFTIIQNLQPQYQFRDYFIATCKQGYQLIEGNQVLHSFTAVCQDDGTWHRAMPRCKIKDCGQPRNLPNGDFRYTTTMGVNTYKARIQYYCHEPYYKMQTRAGSRESEQGVYTCTAQGIWKNEQKGEKIPRCLPVCGKPVNPVEQRQRIIGGQKAKMGNFPWQVFTNIHGRGGGALLGDRWILTAAHTLYPKEHEAQSNASLDVFLGHTNVEELMKLGNHPIRRVSVHPDYRQDESYNFEGDIALLELENSVTLGPNLLPICLPDNDTFYDLGLMGYVSGFGVMEEKIAHDLRFVRLPVANPQACENWLRGKNRMDVFSQNMFCAGHPSLKQDACQGDSGGVFAVRDPNTDRWVATGIVSWGIGCSRGYGFYTKVLNYVDWIKKEMEEED
B2: MASP2: interfering antigenic substance (complement analogue), from Abnova (protein)
chain: TPLGPKWPEPVFGRLASPGFPGEYANDQERRWTLTAPPGYRLRLYFTHFDLELSHLCEYDFVKLSSGAKVLATLCGQESTDTERAPGKDTFYSLGSSLDITFRSDYSNEKPFTGFEAFYAAEDIDECQVAPGEAPTCDHHCHNHLGGFYCSCRAGYVLHRNKRTCSALCSGQVFTQRSGELSSPEYPRPYPKLSSCTYSISLEEGFSVILDFVESFDVETHPETLCPYDFLKIQTDREEHGPFCGKTLPHRIETKSNTVTITFVTDESGDHTGWKIHYTSTAQPCPYPMAPPNGHVSPVQAKYILKDSFSIFCETGYELLQGHLPLKSFTAVCQKDGSWDRPMPACSIVDCGPPDDLPSGRVEYITGPGVTTYKAVIQYSCEETFYTMKVNDGKYVCEADGFWTSSKGEKSLPVCEPVCGLSARTTGGRIYGGQKAKPGDFPWQVLILGGTTAAGALLYDNWVLTAAHAVYEQKHDASALDIRMGTLKRLSPHYTQAWSEAVFIHEGYTHDAGFDNDIALIKLNNKVVINSNITPICLPRKEAESFMRTDDIGTASGWGLTQRGFLARNLMYVDIPIVDHQKCTAAYEKPPYPRGSVTANMLCAGLESGGKDSCRGDSGGALVFLDSETERWFVGGIVSWGSMNCGEAGQYGVYTKVINYIPWIENIISDF
B3: MASP1: interfering antigenic substance (complement analogue), from Abnova (protein)
chain: HTVELNNMFGQIQSPGYPDSYPSDSEVTWNITVPDGFRIKLYFMHFNLESSYLCEYDYVKVETEDQVLATFCGRETTDTEQTPGQEVVLSPGSFMSITFRSDFSNEERFTGFDAHYMAVDVDECKEREDEELSCDHYCHNYIGGYYCSCRFGYILHTDNRTCRVECSDNLFTQRTGVITSPDFPNPYPKSSECLYTIELEEGFMVNLQFEDIFDIEDHPEVPCPYDYIKIKVGPKVLGPFCGEKAPEPISTQSHSVLILFHSDNSGENRGWRLSYRAAGNECPELQPPVHGKIEPSQAKYFFKDQVLVSCDTGYKVLKDNVEMDTFQIECLKDGTWSNKIPTCKIVDCRAPGELEHGLITFSTRNNLTTYKSEIKYSCQEPYYKMLNNNTGIYTCSAQGVWMNKVLGRSLPTCLPVCGLPKFSRKLMARIFNGRPAQKGTTPWIAMLSHLNGQPFCGGSLLGSSWIVTAAHCLHQSLDPEDPTLRDSDLLSPSDFKIILGKHWRLRSDENEQHLGVKHTTLHPQYDPNTFENDVALVELLESPVLNAFVMPICLPEGPQQEGAMVIVSGWGKQFLQRFPETLMEIEIPIVDHSTCQKAYAPLKKKVTRDMICAGEKEGGKDACAGDSGGPMVTLNRERGQWYLVGTVSWGDDCGKKDRYGVYSYIHHNKDWIQRVTGVRN

Tested on: activated C1s
Experiment: Cross reaction test of fluorescence detection method for activated C1s
Type: biochemical
Details: for Measured concentration: interferent in PBS: double-stranded C1r 660 μg/mL, MASP1 and MASP2 5000 μg/mL; for Cross reaction rate (%): measured value/theoretical value×100%
Description: • 1. Preparation of a buffer: 1) Binding Buffer: 0.1 M morpholinoethanesulfonic acid (MES, pH=5.0); • 2) Washing Buffer: TBS containing 0.05% Tween 20; • 3) Blocking Buffer: containing 0.05 M Tris, 1.0% BSA, and 0.05% Tween 20; • 4) Desired Buffer: Tris buffer containing 0.05% Tween 20 and BSA; and • 5) Tris Buffer: 0.05 M Tris, 0.15 M NaCl, and 0.2% (w/v) polyethylene glycol 8000. • 2. Preparation of immunomagnetic beads (C1s recombinant antibody-coupled magnetic beads) • (1) 10 mg of magnetic beads (Merck carboxyl magnetic beads, with a particle size of 1 μm) were washed 3 times with 1 mL of Binding Buffer, and vortexed to mix evenly. • (2) 20 μg of the C1s recombinant antibody obtained in Example 1 was added into every 1 mg of the magnetic beads, mixed well, and vortexed at a room temperature (25° C.) for 15 min. • (3) 50 μg of a coupling agent was added into every 1 mg of the magnetic beads, mixed well, and vortexed at a room temperature for 1 h. • (4) 1 mL of Binding Buffer was added and vortexed at a room temperature for 3 h. • (5) The magnetic beads were washed 4 times with 0.5 mL of Washing Buffer. • (6) The magnetic beads were resuspended with 1 mL of Desired Buffer to obtain C1s recombinant antibody-coupled magnetic beads with a concentration of 5 mg/mL, and stored at 4° C. until later use. • 3. Detection of the enzymatic activity of activated C1s • (1) 60 μL of the C1s recombinant antibody-coupled magnetic beads were stirred evenly, subjected to magnetic suction to remove a supernatant, added with 200 μL of PBS to mix well, subjected to the magnetic suction to remove a supernatant, and washed repeatedly 2 times. • (2) 10 μL of a sample to be tested or activated C1s standards with different concentrations were diluted to 100 μL with PBS, and mixed vertically with the C1s recombinant antibody-coupled magnetic beads at a room temperature for 10 min. The magnetic suction was performed to discard a supernatant. According to the enzymatic activity of the C1s standard determined in Example 4, the enzymatic activity conversion of the C1s standards with different concentrations is shown in Table 2.
• (3) The magnetic beads were repeatedly washed 3 times with 100 μL of PBS. • (4) The magnetic beads were resuspended with 90 μL of Tris buffer. • (5) 10 μL of substrate peptide 3 was added at a concentration of 1 μg/mL. • (6) The detection was performed with a microplate reader at 360/40 excitation light wave and 460/40 emission light wave, with a best reaction time of 1 h as a detection point, and the fluorescence signals were measured and recorded. The straight line fitting was performed by taking a C1s enzymatic activity as an abscissa and a fluorescence signal as an ordinate with a double logarithmic Log-Log mathematical model and using a least square method to plot a standard curve.
In this example, the specificity of the activated C1s was tested. The interfering antigenic substances (complement analogues) that might exist in serum were detected, such as double-stranded C1r, MASP1, and MASP2. The double-stranded C1r, MASP1, and MASP2 were separately diluted with PBS, and the diluted concentrations were 0.66 mg/mL, 5 mg/mL, and 5 mg/mL, successively. The complement analogues were detected based on the steps of Example 5. A cross reaction rate of various substances was calculated. Cross reaction rate=measured value/theoretical value×100%. […] The cross reaction rates were all less than 0.5%.

Molecule | Measured concentration (C1s equivalent in brackets) [µg/mL] | Measured concentration [pmol/min/µg] | Cross reaction rate (%) | Cross reaction rate (%) (listed as double-stranded C1r)
B1 | 1 | 0.91 | 0.15 | 0.3
B2 | 1.8 | 1.64 | 0.04 | –
B3 | 2 | 1.82 | 0.04 | –
